{"source": "patent US20210317204A1", "about": "(ALMAC DISCOVERY, published 2021)", "binders": {"B1": {"name": "P3A1 VNAR (C-terminal His6 or His6Myc tag, not said which) (VNAR, not shown: small tags and cut ends)", "VNAR": "TRVDQTPRTATKETGESLTINCVLTDTSYGLYSTSWFRKNPGTTDWERMSIGGRYVESVNKGAKSFSLRIKDLTVADSATYYCKAREARHPWLRQWYDGAGTVLTVN", "notes": "shark VNAR domain; also called P3A1 monomer"}, "B2": {"name": "2V control VNAR (VNAR, not shown: small tags and cut ends)", "VNAR": "B1 VNAR with R86Q, E87S, A88L, R89A, H90I, P91S, W92T, L93R, R94S, Q95Y", "notes": "control VNAR from a naive library, no known target; also called 2V monomer"}, "B3": {"name": "peptide 5 (peptide)", "peptide": "RSTIYGSRLRIRNLDTTDTGYFQ", "notes": "also called ROR1 ECD Peptide 5"}}, "key": {"[1]": {"target": "T1, human ROR1 extracellular domain-Fc fusion (human, UniProt Q01973 30-406)", "T1 construct": "extracellular domain; also called hROR1; ROR1-hFc", "experiment": "SPR, ROR1-hFc on chip; E. coli"}, "[2]": {"target": "T2, rat ROR1 extracellular domain-Fc fusion (rat, UniProt D3ZZ97 30-406)", "T2 construct": "extracellular domain; also called rROR1", "experiment": "SPR, rROR1 on chip"}, "[3]": {"target": "T2, rat ROR1 extracellular domain-Fc fusion", "experiment": "ELISA on coated rat ROR1-Fc"}, "[4]": {"target": "T3, mouse ROR1 extracellular domain-Fc fusion (mouse, UniProt Q9Z139 30-406)", "T3 construct": "extracellular domain; also called mROR1; mouse ROR1-Fc", "T3 sequence (Q9Z139 30-406)": "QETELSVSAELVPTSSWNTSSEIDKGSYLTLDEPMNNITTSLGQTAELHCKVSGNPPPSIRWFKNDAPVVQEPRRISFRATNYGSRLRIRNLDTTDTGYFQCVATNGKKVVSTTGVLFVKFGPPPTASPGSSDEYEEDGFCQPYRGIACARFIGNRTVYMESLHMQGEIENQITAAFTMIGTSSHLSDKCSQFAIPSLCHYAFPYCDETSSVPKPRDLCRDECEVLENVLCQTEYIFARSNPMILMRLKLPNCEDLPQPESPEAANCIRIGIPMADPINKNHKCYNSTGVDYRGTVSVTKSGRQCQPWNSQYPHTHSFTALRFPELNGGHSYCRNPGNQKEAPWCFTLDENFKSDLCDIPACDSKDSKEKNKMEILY", "experiment": "SPR, mROR1 on chip"}, "[5]": {"target": "T4, human ROR2 extracellular domain-Fc fusion (human, UniProt Q01974 34-403)", "T4 construct": "extracellular domain; also called hROR2; ROR2-hFc", "experiment": "ELISA on coated human ROR2-Fc"}, "[6]": {"target": "T4, human ROR2 extracellular domain-Fc …", "experiment": "SPR"}, "mouse serum albumin": {"target": "T5, mouse serum albumin (mouse, UniProt P07724 25-608)", "T5 construct": "also called MSA", "T5 sequence (P07724 25-608 limits assumed)": "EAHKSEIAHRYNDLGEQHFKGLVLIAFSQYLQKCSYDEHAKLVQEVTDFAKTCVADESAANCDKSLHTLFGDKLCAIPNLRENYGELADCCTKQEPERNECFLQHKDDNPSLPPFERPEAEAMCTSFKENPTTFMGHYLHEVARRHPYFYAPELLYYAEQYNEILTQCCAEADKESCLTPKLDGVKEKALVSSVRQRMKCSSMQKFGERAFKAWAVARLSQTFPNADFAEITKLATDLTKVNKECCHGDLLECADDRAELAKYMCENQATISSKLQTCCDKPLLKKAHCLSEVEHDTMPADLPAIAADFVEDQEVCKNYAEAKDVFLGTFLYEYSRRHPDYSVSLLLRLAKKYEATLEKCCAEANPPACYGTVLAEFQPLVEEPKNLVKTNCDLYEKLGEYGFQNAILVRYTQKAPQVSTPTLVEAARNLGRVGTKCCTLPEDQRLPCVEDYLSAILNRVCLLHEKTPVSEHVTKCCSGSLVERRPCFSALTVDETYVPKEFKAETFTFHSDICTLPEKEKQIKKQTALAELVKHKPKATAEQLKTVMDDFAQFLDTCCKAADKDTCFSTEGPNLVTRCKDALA", "experiment": "SPR, albumin on chip"}, "rat serum albumin": {"target": "T6, rat serum albumin (rat, UniProt P02770 25-608)", "T6 construct": "also called RSA", "T6 sequence (P02770 25-608 limits assumed)": "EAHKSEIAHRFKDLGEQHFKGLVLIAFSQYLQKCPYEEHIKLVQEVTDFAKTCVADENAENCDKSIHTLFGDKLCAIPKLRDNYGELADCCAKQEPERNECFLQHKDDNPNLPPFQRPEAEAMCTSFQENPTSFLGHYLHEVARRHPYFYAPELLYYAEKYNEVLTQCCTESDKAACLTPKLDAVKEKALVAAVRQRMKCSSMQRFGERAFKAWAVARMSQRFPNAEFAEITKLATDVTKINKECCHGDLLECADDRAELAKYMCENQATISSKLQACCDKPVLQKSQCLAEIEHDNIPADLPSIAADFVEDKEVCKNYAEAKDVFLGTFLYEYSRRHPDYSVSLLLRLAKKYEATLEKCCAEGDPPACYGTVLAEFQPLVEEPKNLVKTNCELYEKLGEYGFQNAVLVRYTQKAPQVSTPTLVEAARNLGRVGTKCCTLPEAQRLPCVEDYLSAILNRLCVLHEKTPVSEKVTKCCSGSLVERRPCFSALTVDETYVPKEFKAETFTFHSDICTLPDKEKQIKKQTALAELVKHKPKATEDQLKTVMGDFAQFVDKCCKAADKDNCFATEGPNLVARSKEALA", "experiment": "SPR, albumin on chip"}, "D3 VNAR": {"target": "T7, D3 VNAR", "T7 construct": "shark VNAR domain; also called D3 WT; D3 monomer; not shown: C-terminal His6 or His6Myc tag (His6Myc in flow cytometry)", "T7 sequence (chain, as listed by the source)": "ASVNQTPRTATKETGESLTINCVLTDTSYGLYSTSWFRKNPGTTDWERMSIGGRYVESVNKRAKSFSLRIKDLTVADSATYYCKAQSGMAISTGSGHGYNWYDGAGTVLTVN", "experiment": "competition ELISA: VNAR pre-incubated with peptide 5, residual binding to coated huROR1-Fc [continued]"}, "[7]": {"target": "T8, B1 VNAR (C-terminal His6 or His6Myc tag, not said which)", "T8 construct": "shark VNAR domain; also called VNAR B1; B1 monomer", "T8 sequence (chain, as listed by the source)": "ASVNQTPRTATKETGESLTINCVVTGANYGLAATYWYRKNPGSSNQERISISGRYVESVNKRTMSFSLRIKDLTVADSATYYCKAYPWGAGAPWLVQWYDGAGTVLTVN", "experiment": "competition ELISA: VNAR pre-incubated with peptide 5, residual binding to coated huROR1-Fc [continued]"}, "D3-[G4S]5-D3 homodimer": {"target": "T9, D3-[G4S]5-D3 homodimer", "T9 construct": "also called D3-D3; D3D3; not shown: C-terminal His6 or His6Myc tag (His6Myc in flow cytometry)", "T9 sequence (chain, as listed by the source)": "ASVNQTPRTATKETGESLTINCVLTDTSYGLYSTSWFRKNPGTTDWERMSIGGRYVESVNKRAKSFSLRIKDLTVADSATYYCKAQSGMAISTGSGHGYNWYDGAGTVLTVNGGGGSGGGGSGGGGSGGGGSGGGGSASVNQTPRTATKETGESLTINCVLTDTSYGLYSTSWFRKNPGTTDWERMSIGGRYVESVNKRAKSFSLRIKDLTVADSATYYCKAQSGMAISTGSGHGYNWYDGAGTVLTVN", "experiment": "competition ELISA: VNAR pre-incubated with peptide 5, residual binding to coated huROR1-Fc [continued]"}}, "note": "Residue numbers refer to the chain shown, from its start.", "data": [{"binder": "B1", "values": [{"measurement": "Kd", "setting": "[1]", "result": 19.1, "unit": "nM"}, {"measurement": "koff", "setting": "[1]", "result": 0.0442, "unit": "s⁻¹"}, {"measurement": "kon", "setting": "[1]", "result": "2.47e+06", "unit": "M⁻¹ s⁻¹"}, {"measurement": "Kd", "setting": "[2]", "result": 17.7, "unit": "nM"}, {"measurement": "koff", "setting": "[2]", "result": 0.045, "unit": "s⁻¹"}, {"measurement": "kon", "setting": "[2]", "result": "2.86e+06", "unit": "M⁻¹ s⁻¹"}, {"measurement": "EC50 (read off the curve)", "setting": "[3]", "result": "~0.3", "unit": "µg/mL"}, {"measurement": "Kd", "setting": "[4]", "result": 14.3, "unit": "nM"}, {"measurement": "koff", "setting": "[4]", "result": 0.0408, "unit": "s⁻¹"}, {"measurement": "kon", "setting": "[4]", "result": "2.95e+06", "unit": "M⁻¹ s⁻¹"}, {"measurement": "binding result", "setting": "[5]", "result": "no binding (tested: 10 ug/ml)"}]}, {"binder": "B2", "values": [{"measurement": "binding result", "setting": "[6]", "result": "no binding"}, {"measurement": "binding result", "setting": "[2]", "result": "no binding"}, {"measurement": "binding result", "setting": "mouse serum albumin", "result": "no binding"}, {"measurement": "binding result", "setting": "rat serum albumin", "result": "no binding"}, {"measurement": "binding result", "setting": "[4]", "result": "no binding"}]}, {"binder": "B3", "values": [{"measurement": "binding result", "setting": "D3 VNAR", "result": "no binding (tested: 1000 nM)"}, {"measurement": "binding result", "setting": "[7]", "result": "no binding (tested: 1000 nM)"}, {"measurement": "binding result", "setting": "D3-[G4S]5-D3 homodimer", "result": "no binding (tested: 1000 nM)"}]}]}
